Series [1] is described as follows: Calculation of free payload:ADC following ADC administration. The method, then:
Antibody drug conjugates with thiol-malimide conjugation undergo deconjugation following administration. To assess this deconjugation, free payload: ADC was calculated rather than reverse, because for completely stable antibody, ADC:free payload would be infinity.
Antibody drug conjugates with thiol-malimide conjugation undergo deconjugation following administration. To assess this deconjugation, free payload: ADC was calculated for specific antibody drug conjugates including Trastuzumab, Polatuzumab, Enfortumab and Tisotumab.

A short description of series [2]: Post-injection bleb volume, area, height - caliper measurement. Format: in vivo, Yucatan miniature pig (Sus scrofa domestica). Conditions: Example 8: dupilumab 2 mL; dupilumab + rHuPH20 5 mL; T0. The method, then: (§1) The needle was inserted vertically into the marked injection site and the HVAI held in place by hand. Target needle insertion depth was ˜10 mm. Injections were timed using a stopwatch. Upon completion of the injection the needle was removed and the HVAI device discarded. Test solution back-leakage was then absorbed to a tared eye-spear for 30 seconds on the injection site and the weight of the eye spear was measured using an analytical balance. The margins of the injection site bleb were marked with a permanent marker and measured for length, width, and height using a digital caliper and recorded then photographed with the standard and 3D cameras. Caliper measurements and photographs were taken immediately post-injection. Local injection sites were qualitatively assessed and graded daily for erythema severity, swelling size appearance, and firmness, using a scoring system described in Table 4 Table 5, and Table 6, respectively.
Assessment of Local Swelling Volume and Area Using Caliper Measurement and 3D Imaging. Volume and area of post-injection swelling were measured using both caliper measurement and 3D camera image analysis. For caliper measurements a digital caliper was utilized to measure length, width and height of the bleb that formed post-injection. The length and width are defined as the edge to edge measurements of the bleb (i.e., diameter) along their longest axes. These values were manually recorded, and the volume determined using the formula for half of an ellipsoid Vol=(⅔)*π*A*B*C where A=Length/2, B=Width/2 and C=Height.
Assessment of Post-Injection Bleb Volume, Area and Height (Caliper Measurements). The local injection site swelling (bleb) was marked and measured using a digital caliper.

Series [3] can be described thus: Qualitative assessment of local injection sites (erythema, swelling size, induration). Conditions: Example 8: dupilumab 2 mL; dupilumab + rHuPH20 5 mL; T0, three evaluators. Format: in vivo, Yucatan miniature pig (Sus scrofa domestica). The method, then: as §1
Approximately, 24 hours post-dosing of the first injection, each animal was re-anesthetized, and injection sites assessed for erythema, induration and swelling, then photographed and returned to its cage.

Series [4] in a line: Calculation of drug to antibody ratio (DAR). Conditions: for ADC:free Ab / free Ab:ADC: after adjustment factor. The text has this:
The Drug-to-Antibody Ratio (DAR) is a critical parameter in antibody drug conjugate development, representing the average number of drug molecules attached to each antibody molecule.

[5] abbreviates: Concentration (weight/mL) basis, Unconjugated MMAE/ADC over 28 days.
Where [6] appears, read: Molar basis, Unconjugated MMAE/ADC over 28 days.
Setting [7] is: Molar basis, Using molecular weight for the entire linker, MMAE/ADC over 28 days.
Where [8] appears, read: Concentration (weight/mL) basis, unconjugated MMAE/antibody conjugated MMAE over 21 days.
Setting [9] is: Molar basis, Using molecular weight for the entire linker.
Setting [10] is: Molar basis, different tumor (line after the one using molecular weight for the entire linker).
[11] abbreviates: Molar basis, unconjugated MMAE/antibody conjugated MMAE over 21 days.
[12] abbreviates: Concentration (weight/mL) basis.
Where [13] appears, read: Molar basis, second line, Unconjugated MMAE/ADC over 21 days.

With Enfortumab vedotin (Padcev), the “free payload: ADC, AUC” value is listed as 0.08% in series [1] (setting [5]), 16.4% in series [1] (setting [6]) and 8.9% in series [1] (setting [7]). In addition, the “free payload: ADC, Cmax” value in series [1] (setting [5]) was 0.02%; in series [1] (setting [6]) it was 4.2%; in series [1] (setting [7]), 2.3%.
As to Polatuzumab vedotin (Polivy), the “free payload: ADC, AUC” value in series [1] (setting [8]) is on record as 1.52%; in series [1] (setting [9]) it was 173.1%; in series [1] (Molar basis, different tumor) it was 257.1%; in series [1] (setting [10]) it was 140.2%; in series [1] (setting [11]), 317.5%. Moreover, the “free payload: ADC, Cmax” value in series [1] (setting [8]) is recorded as 0.46%; in series [1] (setting [9]), 52.8%; in series [1] (Molar basis, different tumor), 87.2%; in series [1] (setting [10]), 47.5%; in series [1] (setting [11]) it was 96.9%.
On to Tisotumab vedotin (Tivdak), for which the “free payload: ADC, AUC” value in series [1] (setting [12]) is given as 0.09%; in series [1] (Molar basis), 18.5%; in series [1] (setting [13]) it was 10.1%. For the same substance, the “free payload: ADC, Cmax” value was 0.01% in series [1] (setting [12]), 3.1% in series [1] (Molar basis) and 1.7% in series [1] (setting [13]).
Take dupilumab: in series [2], the “Post-injection bleb Area, caliper (Mean ± SEM)” value is 13.1 ± 1.4 and the “Post-injection bleb Volume, caliper (Mean ± SEM)” value is listed as 7.0 ± 1.8. In series [3], the “Induration Score (Mean ± SEM)” value is recorded as 2.4 ± 0.4 and the “Swelling Score (Mean ± SEM)” value was found to be 1.4 ± 0.2.
mirvetuximab soravtansine: in series [4] (Day 1), the “% DAR remaining (which may be ~ADC/ total Ab)” value is 88.4%, the “% DAR remaining after adjustment factor to allow for variability (line without head)” value is reported as 70.7%, the “ADC:free Ab” value is given as 241.3% and the “free Ab:ADC” value was 41.4%. For the same substance, in series [4] (Day 7), the “% DAR remaining (which may be ~ADC/ total Ab)” value was 32.6%, the “% DAR remaining after adjustment factor to allow for variability (line without head)” value is 26.0%, the “ADC:free Ab” value is listed as 35.2% and the “free Ab:ADC” value is reported as 283.9%.

Values taken from patent US20260069707A1, “COMBINATION THERAPY WITH ANTIBODY-DRUG CONJUGATES AND HYALURONIDASES” (HALOZYME, INC., priority 2024, published 2026).
